According to US7888089B2, “eNOS mutations useful for gene therapy and therapeutic screening” (Yale University, priority 1999, dated 2011):
Values joined by “and” are separate entries in the source; they are usually repeats but may differ in a detail not shown here. Equal values may be shown once. Read-outs that look alike come from different tables or passages of the source.

Legend:
[1] = test system: eNOS; assay: NOS activity (3H-L-arginine to 3H-L-citrulline) in COS cell lysates; type: biochemical, bovine; details: COS cells transfected with eNOS only, n=3
Excerpt: NOS activity assays: The conversion of ^3H-L-arginine to ^3H-L-citrulline was used to determine NOS activity in COS cell or endothelial cell lysates as previously described by Garcia-Cardena et al. (1998).

[2] = test system: eNOS; assay: Conversion of L-arginine to L-citrulline by purified eNOS; type: biochemical, bovine; details: for Kcat (CaM, L-Citrulline): CaM activation of NOS activity
Experimental: The conversion of L-arginine to L-citrulline was assayed as described previously by Bredt et al. (1990). Briefly, eNOS (0.25-2 μg) was incubated for 3-10 min at 23° C. in the following reaction mixture: 3 pmol of L-[3H]arginine (55 Ci/mmol), 10-300 μM arginine, 1 mM NADPH, 120-200 nM calmodulin, 2 mM CaCl2, and 30 μM BH4 in a final reaction volume of 50-100 μl. The reaction was terminated by the addition of 0.5 ml of 20 mM HEPES, pH 5.5, containing 2 mM EGTA and EDTA. The reaction mixture was placed over Dowex AG50WX8, and the flow-through was counted on a Packard 1500 liquid scintillation analyzer.

[3] = test system: eNOS; assay: Hemoglobin capture assay of NO production by purified eNOS; type: biochemical, bovine; details: for Kcat (substrate Arginine, Hemoglobin capture): rate of NO production vs L-arginine, optimal conditions
Experimental: Assay for NOS Activity—NO production was measured by the hemoglobin capture assay as described (Kelm et al., 1988). Briefly, the reaction mixture contained eNOS (0.5-2.5 μg), oxyhemoglobin (8 μM), L-arginine (100 μM), BH4 (5 μM), CaCl2 (120 μM), calmodulin (120-200 nM), and NADPH (100 μM) in HEPES buffer (50 mM), pH 7.4. […] Under these conditions, free calcium was calculated using the WinMAXC program, version
NOS activity was monitored for linearity over 2 min at 401 nm, and NO production was calculated based on the change of absorbance using the extinction coefficient of 60 mM^−1 cm^−1. All reactions were carried out at 23° C., and each data point represents 3-8 observations. The extinction coefficient of 0.0033 μM^−1 cm^−1 at 276 nm was used for determination of calmodulin concentration. […] When the inactivation of eNOS was determined by the addition of EGTA (200-800 μM) to the reaction mixture, chelator was added 1 min after initiation of the reaction by NADPH. Identical conditions were used when NADPH-cytochrome c reductase activity was examined. These reactions contained CaM (120 nM) and CaCl2 (200 μM) in a 0.5-ml volume with eNOS (0.5 μg).

[4] = DCIP reduction by purified eNOS; type: biochemical; details: FIG. 6B
Experimental: (§1) Assays for Reductase Activity—NADPH-cytochrome c reductase activity and 2,6-dichlorophenolindophenol (DCIP) reduction were measured as a change in absorbance at 550 nm as described previously by Martasek et al. (1999) and Masters et al. (1967) using an extinction coefficient of 0.021 μM^−1 cm^−1 for both cytochrome c and DCIP. Briefly, a reaction mixture (1 ml) contained either cytochrome c (90 μM); DCIP (36 μM), HEPES buffer (50 mM) at pH 7.6, NaCl (250 mM), NADPH (100 μM), calmodulin (120 nM), and CaCl2 (200 μM); or other substances as indicated. The reaction was monitored for 60 s (at 23° C.) after the addition of eNOS. When inactivation of reductase activity was determined by the addition of EGTA (200-800 μM), chelator was added 1 min after initiation of the reaction and monitored for an additional 1 min. The reaction contained HEPES buffer (50 mM) at pH 7.6, CaM (120 nM), and CaCl2 (200 μM) and was initiated with NADPH (100 μM). No NaCl was added in experiments that examined EGTA inactivation of eNOS to mimic the conditions used in the hemoglobin capture experiments. […] Determination of the calcium EC50 for eNOS was performed as described above for the hemoglobin capture assay.

[5] = test system: cytochrome c; assay: NADPH-cytochrome c reductase activity of purified eNOS; type: biochemical; details: for EC50: cytochrome c reduction; for Km: Km for NADPH
Experimental: as §1

B1: S1179D: bovine eNOS with serine 1179 mutated to aspartic acid (protein)
chain: GNLKSVGQEPGPPCGLGLGLGLGLCGKQGPASPAPEPSRAPAPATPHAPDHSPAPNSPTLTRPPEGPKFPRVKNWELGSITYDTLCAQSQQDGPCTPRCCLGSLVLPRKLQTRPSPGPPPAEQLLSQARDFINQYYSSIKRSGSQAHEERLQEVEAEVASTGTYHLRESELVFGAKQAWRNAPRCVGRIQWGKLQVFDARDCSSAQEMFTYICNHIKYATNRGNLRSAITVFPQRAPGRGDFRIWNSQLVRYAGYRQQDGSVRGDPANVEITELCIQHGWTPGNGRFDVLPLLLQAPDEAPELFVLPPELVLEVPLEHPTLEWFAALGLRWYALPAVSNMLLEIGGLEFSAAPFSGWYMSTEIGTRNLCDPHRYNILEDVAVCMDLDTRTTSSLWKDKAAVEINLAVLHSFQLAKVTIVDHHAATVSFMKHLDNEQKARGGCPADWAWIVPPISGSLTPVFHQEMVNYILSPAFRYQPDPWKGSATKGAGITRKKTFKEVANAVKISASLMGTLMAKRVKATILYASETGRAQSYAQQLGRLFRKAFDPRVLCMDEYDVVSLEHEALVLVVTSTFGNGDPPENGESFAAALMEMSGPYNSSPRPEQHKSYKIRFNSVSCSDPLVSSWRRKRKESSNTDSAGALGTLRFCVFGLGSRAYPHFCAFARAVDTRLEELGGERLLQLGQGDELCGQEEAFRGWAKAAFQASCETFCVGEEAKAAAQDIFSPKRSWKRQRYRLSTQAEGLQLLPGLIHVHRRKMFQATVLSVENLQSSKSTRATILVRLDTAGQEGLQYQPGDHIGICPPNRPGLVEALLSRVEDPPPPTESVAVEQLEKGSPGGPPPSWVRDPRLPPCTLRQALTFFLDITSPPSPRLLRLLSTLAEEPSEQQELETLSQDPRRYEEWKWFRCPTLLEVLEQFPSVALPAPLLLTQLPLLQPRYYSVSSAPNAHPGEVHLTVAVLAYRTQDGLGPLHYGVCSTWLSQLKTGDPVPCFIRGAPSFRLPPDPYVPCILVGPGTGIAPFRGFWQERLHDIESKGLQPAPMTLVFGCRCSQLDHLYRDEVQDAQERGVFGRVLTAFSREPDSPKTYVQDILRTELAAEVHRVLCLERGHMFVCGDVTMATSVLQTVQRILATEGDMELDEAGDVIGVLRDQQRYHEDIFGLTLRTQEVTSRIRTQDFSLQERHLRGAVPWAFDPPGPDTPGP
NOS activity in lysates [1]: 131.8±36.7 pmol L-citrulline generated/mg protein
Kcat (CaM, L-Citrulline) [2]: 0.717 ± 0.033 s⁻¹
Kcat (CaM, L-Citrulline) ([2]; listed as S1179D eNOS): 0.717 s⁻¹
EC50 ([2]; EC50 for CaM, NOS activity): 7 nM
sensitivity of NO production to the addition of EGTA ([3]; 0-600 μM EGTA, 200 μM calcium): less sensitive to the addition of EGTA
NO production after calcium chelation with EGTA ([3]; 600 μM EGTA, 200 μM calcium): residual activity was still detected
EC50 ([3]; EC50 for free calcium, NO production, 250 nM CaM, read-out: EC50 (Ca2+, Hemoglobin capture, 100 mM KCl)): 250 nM
calcium dependence of NO production after normalization for maximal activity ([3]; FIG. 8C, p<0.05): slightly increased
Km ([3]; Km for L-arginine, read-out: Km (substrate Arginine, Hemoglobin capture)): 2.5 µM
Km ([3]; Km for NADPH, in presence of CaM, read-out: Km (NADPH, Hemoglobin capture)): 36 µM
Kcat (NADPH, Hemoglobin capture) ([3]; NADPH dependence, in presence of CaM): 0.883 ± 0.05 s⁻¹
increase in the Km for NADPH, S1179D compared with wild type eNOS ([3]; NO production, presence of CaM): 4 fold
Kcat (Ca2+, Hemoglobin capture, 100 mM KCl) ([3]; calcium activation, 250 nM CaM): 1.67 ± 0.05 s⁻¹
maximal turnover rate, FIG. 8C ([3]; calcium-dependent NO production): 100 min1
maximal turnover rate, FIG. 8A ([3]; calmodulin-dependent hemoglobin capture): 43 min⁻¹
Kcat (substrate Arginine, Hemoglobin capture) [3]: 1.4 ± 0.1 s⁻¹
Kcat (substrate Arginine, Hemoglobin capture) ([3]; listed as S1179D eNOS): 1.4 ± 0.1 s⁻¹
DCIP reduction activity compared with wild type eNOS [4]: significant increase in activity
kcat for CaM activation of cytochrome c reduction, S1179D compared with wild type [5]: about 2 fold
Kcat (CaM, Cytochrome c) ([5]; CaM activation of cytochrome c reduction): 19 s⁻¹ and 19 ± 1.25 s⁻¹
EC50 ([5]; EC50 for CaM, listed as S1179D eNOS, read-out: EC50 (CaM, Cytochrome c)): 13 nM
EC50 ([5]; EC50 for CaM, read-out: EC50 (CaM, Cytochrome c)): 21 nM
EC50 ([5]; EC50 for free calcium, read-out: EC50 (Ca2+, Cytochrome c, 100 mM KCl)): 220 nM
cytochrome c reduction activity compared with wild type eNOS ([5]; FIG. 6B): significant increase in activity
Km ([5]; absence of CaM): 2 µM
Km ([5]; presence of CaM): 1.9 µM
Kcat − CaM (NADPH, Cytochrome c) ([5]; NADPH dependence, absence of CaM): 4.83 ± 0.15 s⁻¹
Kcat − CaM (NADPH, Cytochrome c) ([5]; NADPH dependence, absence of CaM, listed as eNOS S1179D): 4.83 s⁻¹
Kcat + CaM (NADPH, Cytochrome c) ([5]; NADPH dependence, presence of CaM): 14 s⁻¹ and 14 ± 0.983 s⁻¹
basal cytochrome c reduction, S1179D compared with wild type eNOS ([5]; absence of CaM): 4 fold
cytochrome c reduction, first value of pair (with superoxide dismutase) ([5]; absence of CaM): 278 ± 9 min⁻¹
cytochrome c reduction, second value of pair (without superoxide dismutase) ([5]; absence of CaM): 288 ± 7 min⁻¹
Kcat (Ca2+, Cytochrome c, 100 mM KCl) ([5]; calcium activation): 63.3 ± 0.9 s⁻¹
maximal turnover rate, FIG. 8D ([5]; calcium-dependent cytochrome c reduction): 3810 min⁻¹
maximal turnover rate, FIG. 8B ([5]; calmodulin-dependent cytochrome c reduction): 1400 min1
reductase activity after calcium chelation with EGTA ([5]; highest concentration of EGTA): residual reductase activity was found
cytochrome c reduction with superoxide dismutase ([5]; presence of CaM): 1179 ± 43 min⁻¹
cytochrome c reduction without superoxide dismutase ([5]; presence of CaM): 1518 ± 19 min⁻¹
relative decrease in cytochrome c activity in the presence of superoxide dismutase ([5]; presence of CaM): 22%
CaM-stimulated cytochrome c reduction ([5]; presence of CaM, n=3-5): 1272 ± 55 min⁻¹
level of stimulation of cytochrome c reduction by CaM ([5]; with vs without CaM): 3 fold
